T1: holo-ZmaD
T1 chain: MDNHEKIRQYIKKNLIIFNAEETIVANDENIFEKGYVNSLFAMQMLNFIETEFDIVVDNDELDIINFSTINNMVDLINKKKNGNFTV


Experiments:
[1] = test system: holo-ZmaD
[2] = test system: holo-ZmaH
[3] = target: holo-ZmaH; remark: listed apart in the source
[4] = target: T1, holo-ZmaD

Row | Molecule | aminoacylation of holo-ZmaD (holo-ZmaD replaced holo-ZmaH) [1] | formation of seryl-ZmaH (HPLC elution shift and MS mass of holo-ZmaH) [2] | formation of glyceryl-ACP (control reaction in which holo-ZmaH replaced holo-ZmaD) [3] | formation of glyceryl-ZmaD (HPLC elution shift and MALDI-TOF MS mass shift of holo-ZmaD) [4] | rate of holo-ZmaD modification, with 3-PGPK [4] [nmol min-1 with 3-PGPK] | rate of holo-ZmaD modification, without 3-PGPK [4] [nmol min-1 without 3-PGPK]
1 | ZmaJ | ZmaJ was not able to aminoacylate holo-ZmaD | Incubation of holo-ZmaH with ZmaJ, L-Ser, and ATP resulted in a change in the holo-ZmaH elution time from the HPLC, and the mass of the purified product was consistent with the formation of seryl-ZmaH |  |  |  | 
2 | ZmaN (protein) MSKEIKCVVWDLDCTIWDGVLLESGTVTLKPGIYEIICELDRRGILQSVASKNNYEDAIAKLREFGIEEYFLYPEIHWNSKSSSIEKIRKNLNIGIDTFAFIDDQPFELEEVQSVHNDILCIHVNEYKSLLDLPRLQPKRITEDSGRRRLMYLENLKRTKDEEEYEGPKEEFLASLGMNFVISEAREEDLQRAEELTVRTNQLNSTGITYDYDELNYYRNHPDYLLLVCELSDKYGSYGKIGLTLVKRTEEADCLKLLLMSCRVMSRGVGTILLTYLMERTKQAGKRFLAEFRQTDRNRMMFVTYRLAGFKETSNENGILILEHNLENINPYPHYINIQFPETPTDVDRGEVEICNKQL |  |  | holo-ZmaH was not a substrate for ZmaN-catalyzed formation of glyceryl-ACP | The mass of holo-ZmaD had shifted to be consistent with the formation of glyceryl-ZmaD | 1.44 | 0.08
